The supplement of paper PMC9112550, “Optimization of the antimicrobial peptide Bac7 by deep mutational scanning” (BMC Biology, 2022)

What follows are sequences tested on Escherichia coli TOP10 (assay: shrunken log2 fold change of peptide-encoding DNA abundance (4.5 h post-induction vs induction); higher = less antimicrobial activity (less host growth inhibition)). Conditions: time post-induction: 4.5 h; library: site-saturation at positions 5, 18, 19, 20.
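Also: peptides expressed intracellularly from a pBAD plasmid library in pooled LB shake-flask culture, induced with 0.3% L-arabinose, DNA abundance read by NGS, three biological replicates, DESeq2 with apeglm shrinkage.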

Sequence	shrunken log2 fold change
RRIRHRPPRLPRPRPRPTLGPRP	-0.0595
RRIRHRPPRLPRPRPRPTNGPRP	-0.154
RRIRHRPPRLPRPRPRPTPVPRP	0.137
RRIRHRPPRLPRPRPRPTQKPRP	-0.00748
RRIRHRPPRLPRPRPRPTRNPRP	-0.0346
RRIRHRPPRLPRPRPRPTRWPRP	0.137
RRIRHRPPRLPRPRPRPTSPPRP	-0.0524
RRIRHRPPRLPRPRPRPTTIPRP	-0.165
RRIRHRPPRLPRPRPRPTTLPRP	-0.301
RRIRHRPPRLPRPRPRPTVMPRP	-0.0285
RRIRHRPPRLPRPRPRPTWQPRP	0.572
RRIRHRPPRLPRPRPRPVDNPRP	0.013
RRIRHRPPRLPRPRPRPVFKPRP	0.126
RRIRHRPPRLPRPRPRPVGIPRP	-0.294
RRIRHRPPRLPRPRPRPVGLPRP	0.119
RRIRHRPPRLPRPRPRPVHPPRP	-0.131
RRIRHRPPRLPRPRPRPVIKPRP	-0.0701
RRIRHRPPRLPRPRPRPVKFPRP	-0.0191
RRIRHRPPRLPRPRPRPVKGPRP	-0.079
RRIRHRPPRLPRPRPRPVNYPRP	-0.881
RRIRHRPPRLPRPRPRPVPHPRP	-0.031
RRIRHRPPRLPRPRPRPVRHPRP	0.251

Sequence	shrunken log2 fold change
RRIRHRPPRLPRPRPRPVRYPRP	-0.551
RRIRHRPPRLPRPRPRPVTIPRP	-0.311
RRIRHRPPRLPRPRPRPVTLPRP	-0.175
RRIRHRPPRLPRPRPRPVVWPRP	0.524
RRIRHRPPRLPRPRPRPVVYPRP	-0.186
RRIRHRPPRLPRPRPRPVWRPRP	0.0724
RRIRHRPPRLPRPRPRPVWTPRP	-0.225
RRIRHRPPRLPRPRPRPVYEPRP	0.015
RRIRHRPPRLPRPRPRPVYPPRP	-0.529
RRIRHRPPRLPRPRPRPWCEPRP	0.0456
RRIRHRPPRLPRPRPRPWDDPRP	-0.0102
RRIRHRPPRLPRPRPRPWDQPRP	0.0769
RRIRHRPPRLPRPRPRPWFDPRP	-0.0263
RRIRHRPPRLPRPRPRPWFGPRP	-0.0191
RRIRHRPPRLPRPRPRPWFKPRP	0.0141
RRIRHRPPRLPRPRPRPWFMPRP	-0.474
RRIRHRPPRLPRPRPRPWFNPRP	-0.153
RRIRHRPPRLPRPRPRPWGAPRP	-0.0102
RRIRHRPPRLPRPRPRPWGLPRP	-0.00494
RRIRHRPPRLPRPRPRPWHEPRP	-0.0659
RRIRHRPPRLPRPRPRPWHWPRP	-0.135
RRIRHRPPRLPRPRPRPWIHPRP	-0.197

Sequence	shrunken log2 fold change
RRIRHRPPRLPRPRPRPWKEPRP	-0.0223
RRIRHRPPRLPRPRPRPWKHPRP	-0.0222
RRIRHRPPRLPRPRPRPWMRPRP	0.101
RRIRHRPPRLPRPRPRPWNFPRP	-0.0202
RRIRHRPPRLPRPRPRPWQLPRP	-0.016
RRIRHRPPRLPRPRPRPWSSPRP	-0.116
RRIRHRPPRLPRPRPRPWSTPRP	-0.0631
RRIRHRPPRLPRPRPRPWTIPRP	-0.0445
RRIRHRPPRLPRPRPRPWTNPRP	-0.101
RRIRHRPPRLPRPRPRPWVEPRP	-0.0959
RRIRHRPPRLPRPRPRPWWIPRP	-0.177
RRIRHRPPRLPRPRPRPWWWPRP	0.0221
RRIRHRPPRLPRPRPRPWYMPRP	-0.324
RRIRHRPPRLPRPRPRPWYYPRP	-1.47
RRIRHRPPRLPRPRPRPYDFPRP	-0.0434
RRIRHRPPRLPRPRPRPYEKPRP	-0.195
RRIRHRPPRLPRPRPRPYETPRP	-0.151
RRIRHRPPRLPRPRPRPYGHPRP	-0.551
RRIRHRPPRLPRPRPRPYHPPRP	-0.00776
RRIRHRPPRLPRPRPRPYIAPRP	-0.496
RRIRHRPPRLPRPRPRPYKAPRP	-0.484
RRIRHRPPRLPRPRPRPYKHPRP	-0.512

Sequence	shrunken log2 fold change
RRIRHRPPRLPRPRPRPYLEPRP	-0.0394
RRIRHRPPRLPRPRPRPYLFPRP	-0.523
RRIRHRPPRLPRPRPRPYLNPRP	-1.2
RRIRHRPPRLPRPRPRPYMLPRP	-1.66
RRIRHRPPRLPRPRPRPYMPPRP	-0.402
RRIRHRPPRLPRPRPRPYNFPRP	-0.078
RRIRHRPPRLPRPRPRPYNRPRP	-0.0244
RRIRHRPPRLPRPRPRPYQQPRP	-0.032
RRIRHRPPRLPRPRPRPYQYPRP	-0.00963
RRIRHRPPRLPRPRPRPYRDPRP	-0.0135
RRIRHRPPRLPRPRPRPYREPRP	0.0421
RRIRHRPPRLPRPRPRPYTCPRP	-0.0278
RRIRHRPPRLPRPRPRPYVYPRP	-0.0796
RRIRHRPPRLPRPRPRPYWPPRP	-0.306
RRIRHRPPRLPRPRPRPYWQPRP	-0.0678
RRIRHRPPRLPRPRPRPYYRPRP	-0.0075
RRIRIRPPRLPRPRPRPAAMPRP	0.391
RRIRIRPPRLPRPRPRPAAVPRP	-0.181
RRIRIRPPRLPRPRPRPAAYPRP	-0.919
RRIRIRPPRLPRPRPRPACDPRP	-0.0913
RRIRIRPPRLPRPRPRPACEPRP	0.17
RRIRIRPPRLPRPRPRPACGPRP	0.271

Sequence	shrunken log2 fold change
RRIRIRPPRLPRPRPRPACYPRP	-0.472
RRIRIRPPRLPRPRPRPAEYPRP	0.0308
RRIRIRPPRLPRPRPRPAFMPRP	-0.3
RRIRIRPPRLPRPRPRPAGCPRP	-0.0691
RRIRIRPPRLPRPRPRPAGNPRP	-0.0516
RRIRIRPPRLPRPRPRPAHDPRP	0.0246
RRIRIRPPRLPRPRPRPAHKPRP	0.0491
RRIRIRPPRLPRPRPRPAHRPRP	-0.133
RRIRIRPPRLPRPRPRPAIFPRP	-0.102
RRIRIRPPRLPRPRPRPAIKPRP	-0.265
RRIRIRPPRLPRPRPRPAMAPRP	-0.237
RRIRIRPPRLPRPRPRPAMIPRP	0.0156
RRIRIRPPRLPRPRPRPANEPRP	0.158
RRIRIRPPRLPRPRPRPANLPRP	-0.584
RRIRIRPPRLPRPRPRPANQPRP	-0.693
RRIRIRPPRLPRPRPRPAPKPRP	0.187
RRIRIRPPRLPRPRPRPAQFPRP	0.0396
RRIRIRPPRLPRPRPRPAQMPRP	-0.0791
RRIRIRPPRLPRPRPRPASCPRP	-0.1
RRIRIRPPRLPRPRPRPASFPRP	-0.167
RRIRIRPPRLPRPRPRPATFPRP	-0.658
